Measurements: publication PMC5085863 (The Biochemical journal, 2016)
Where two headings read alike, the source gives them in different places.

Tests used:
Test in all cases: FRET or BRET
FRET or BRET [1] = molecular target: the molecule itself
FRET or BRET [2] = molecular target: the molecule itself; remark: listed apart in the source
FRET or BRET [3] = molecular target: the molecule itself; remark: listed apart in the source
FRET or BRET [4] = molecular target: the molecule itself; remark: listed apart in the source
FRET or BRET [5] = molecular target: the molecule itself; remark: listed apart in the source
FRET or BRET [6] = molecular target: the molecule itself; remark: listed apart in the source
FRET or BRET [7] = molecular target: the molecule itself; remark: listed apart in the source

B1: opsin tagged with the fluorescent proteins mTurquoise or SYFP2 (opsin-mTurquoise and opsin-SYFP2, co-expressed) (receptor, UniProt P15409 1-348, looked up)
chain: MNGTEGPNFYVPFSNVTGVVRSPFEQPQYYLAEPWQFSMLAAYMFLLIVLGFPINFLTLYVTVQHKKLRTPLNYILLNLAVADLFMVFGGFTTTLYTSLHGYFVFGPTGCNLEGFFATLGGEIALWSLVVLAIERYVVVCKPMSNFRFGENHAIMGVVFTWIMALACAAPPLVGWSRYIPEGMQCSCGIDYYTLKPEVNNESFVIYMFVVHFTIPMIVIFFCYGQLVFTVKEAAAQQQESATTQKAEKEVTRMVIIMVIFFLICWLPYASVAFYIFTHQGSNFGPIFMTLPAFFAKSSSIYNPVIYIMLNKQFRNCMLTTLCCGKNPLGDDDASATASKTETSQVAPA
- tetramer to dimer ratio (ρ) (FRET or BRET [1]): 484
- tetramer to dimer ratio (ρ) (FRET or BRET [2]): 0.401
- stoichiometry N (FRET or BRET [3]): 2
- tetramer to dimer ratio (ρ) (FRET or BRET [4]): 1.08
- stoichiometry N (FRET or BRET [5]): 4
- KD tetramer to higher order oligomers (FRET or BRET [6]): > 1150 molecules/μm^2
- stoichiometry N (FRET or BRET [6]): ≥ 12
- tetramer to dimer ratio (ρ) (FRET or BRET [7]): 1.79
